Blank lines part the entries; values can stand above or below the compound they belong to. Square brackets hold non-standard residues; d marks the D form. * marks the point of attachment. Cbz = O=C(OCc1ccccc1)*
How the values were obtained:
[1] = tested on: multiple myeloma cell lines; test: [3H]thymidine incorporation assay, survival of multiple myeloma cell lines; format: cell-based, human; details: for cytotoxic activity in multiple myeloma cell lines: 6-day treatment, all lines tested apart from RPMI-8226 and KMM-1; for IC50 values in the sensitive multiple myeloma cell lines: 144 hr, sensitive (Gadd45β-dependent) cell lines
Procedure: (§1) Values express the percentage of live cells present in the treated cultures relative to the live cells present in the respective untreated cultures and denote means±SD ([WM]; n=3). UT, untreated. […] Values express the percentage of inhibition of Gadd45β binding to MKK7 relative to the binding measured in the absence of peptide. […] Co-immunoprecipitations (IP) were performed using an anti-FLAG antibody (a-FLAG); western blots (WB) were developed using an anti-HA or an anti-MKK7 antibody, as shown.
[^3H]Thymidine incorporation and trypan blue exclusion assays were performed using standard methods (Mauro et al., 2011). […] Apoptosis analyses were performed using PI staining as described in Mauro et al., 2011. Additional details are provided in the Supplemental Experimental Procedures.

[2] = target: GST-MKK7 (full-length human MKK7 fused to an N-terminal GST tag) (human) (UniProt O14733); test: ELISA Gadd45β/MKK7 competition (summary sentence on FIGS. 4 to 8)
[3] = target: GST-MKK7 (full-length human MKK7 fused to an N-terminal GST tag) (human) (UniProt O14733); test: ELISA Gadd45β/MKK7 competition; without serum pre-incubation
[4] = target: GST-MKK7 (full-length human MKK7 fused to an N-terminal GST tag) (human) (UniProt O14733); test: ELISA Gadd45β/MKK7 competition; after 48-hr pre-incubation with human serum at 37 C
[5] = tested on: diffuse large B-cell lymphoma (DLBCL) cell lines; test: PI nuclear staining assay, apoptotic cells in DLBCL cell lines; format: cell-based, human; details: 6 days; sensitive and insensitive DLBCL cell lines; baseline level
Procedure: Current treatment of diffuse large B-cell lymphoma typically involves treatment with combination therapy, such as cyclophosphamide, doxorubicin, vincristine and prednisone (CHOP), or rituximab, cyclophosphamide, doxorubicin, vincristine and prednisone (R-CHOP). With those current treatments, many patients relapse and/or develop drug resistance at some point. The potential of the Gadd45β/MKK7 inhibitor DTP3 to operate in these settings was evaluated, by determining levels of apoptosis in diffuse large B-cell lymphoma cell lines known to be resistant to current therapies (HT, SU-DHL-8, U-2932, RC-K8 and RIVA, see for example Kaneko et al, Clinical Cancer Research, 2014, 20, p 1814-1820; Naylor et al, Cancer Research, 2011, Volume 71, p 2643-2653; Lyu et al, Cancer Research, 2013, Volume 73, Issue 8, Supplement 1), following treatment of those cells with DTP3. These cells have CARD11, A20 and/or MYD88 mutations and are also known to be resistant to agents such as Bruton's tyrosine kinase inhibitors, spleen tyrosine kinase inhibitors, PI3K inhibitors and/or protein kinase C inhibitors.
The percentages of apoptotic cells are depicted.
A comparison was made between the ability of DTP3 to kill various DLBCL cell lines by apoptosis in vitro. Cell lines HT, SU-DHL-8, U-2932 and RC-K8 which are known to be sensitive to DTP3; and insensitive cell lines RI-1, NU-DUL-1, TMD8, and HBL1 were used. Cell death was assessed using a standard propidium iodide (PI) nuclear staining assay followed by flow cytometry whereby the proportion of cells with a sub G1-DNA content was measured after cells had been exposed to DTP3 for 6 days at 10 μM. As controls, further populations of cells were left untreated (UT) or were treated with a scrambled D-tripeptide (SCR) for 6 days.
Apoptosis analyses were performed using propidium iodide (PI) nuclear labelling, as described previously (Riccardi and Nicoletti, 2006). Briefly, cells were seeded at a density of 2×10^5 cells/well into wells of either 24- or 48-well plates and cultured in the presence or absence of treatment, as shown. Cells were then fixed in 70% ice-cold ethanol for 16 hr, washed in PBS, and treated with ribonuclease A (50 μg/mL) for 30 min at room temperature. Samples were finally stained with PI (50 μg/mL) in 0.1% sodium citrate buffer for 2 to 4 hr at 4° C. in the dark, and data were acquired using a FACSCalibur automated system (Becton Dickinson) and analysed with FlowJo.

Gadd45β/MKK7 complex = target: T1, Gadd45β/MKK7 complex (Homo sapiens, UniProt O14733); test: co-immunoprecipitation assay; format: binding; details: anti-FLAG immunoprecipitates, HEK-293T lysates
T1 construct: expressed in transfected cells; host or cells: human HEK-293T
T1 sequence (O14733 1-419): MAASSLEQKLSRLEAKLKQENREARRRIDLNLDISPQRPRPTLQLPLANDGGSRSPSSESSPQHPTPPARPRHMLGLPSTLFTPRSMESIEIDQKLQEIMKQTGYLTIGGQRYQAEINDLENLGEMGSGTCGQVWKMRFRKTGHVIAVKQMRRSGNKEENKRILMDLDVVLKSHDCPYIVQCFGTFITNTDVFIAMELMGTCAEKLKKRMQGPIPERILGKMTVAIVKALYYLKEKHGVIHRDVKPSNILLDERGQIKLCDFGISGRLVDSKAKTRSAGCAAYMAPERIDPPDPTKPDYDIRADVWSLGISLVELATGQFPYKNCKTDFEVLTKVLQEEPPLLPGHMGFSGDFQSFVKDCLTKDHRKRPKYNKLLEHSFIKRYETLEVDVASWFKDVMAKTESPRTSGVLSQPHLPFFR
Procedure: as §1
Co-immunoprecipitation assays were performed as described previously (Papa et al., 2004). Briefly, human HEK-293T cells were seeded at a density of 1.8-2.2×10^6 cells/dish in […] tissue-culture dishes and then transfected with pcDNA-FLAG-hMKK7 and pcDNA-HA-hGADD45β by using the calcium phosphate precipitation method (Papa et al., 2004). 48 hr after transfection, cells were washed with PBS and then lysed in lysis buffer supplemented with protease inhibitors (1 mM phenylmethylsulfonylfluoride, 10 μM chymostatin, 2 μg/mL aprotinin, 2 μg/mL leupeptin; Roche) for 30 min in ice. Cell lysates were cleared by centrifugation at 45,000×g for 40 min and then used for co-immunoprecipitations with anti-FLAG M2 Affinity Gel (Sigma-Aldrich), binding to FLAG-tagged MKK7. Western blots were developed using an anti-HA (binding to HA-hGADD45β) or an anti-MKK7 antibody. […]

[6] = mouse, in vivo
Procedure: In vitro pharmacokinetic assays were performed according to established, in-house protocols and included: plasma stability (human), thermodynamic solubility (PBS pH 7.4, at 37° C. for 14 days), microsomal stability (human), plasma protein binding (PPB; mouse and human), and distribution coefficient (Log D). In vivo pharmacokinetic analyses were also performed at Cyprotex according to established, in-house protocols. Briefly, the peptides were dissolved in PBS and administered by single intravenous injection to CD1 male mice at the dose of 10 mg/kg (25-30 g of total body weight; n=3 mice per time point per compound). Blood samples were collected in heparinized tubes at up to 7 time points after this injection (i.e. 0.08, 0.25, 0.5, 1, 2, 4 and 8 hr), and the plasma concentrations of the test peptide were determined at each time point by LC-MS/MS, using a five-point standard curve covering a peptide concentration range from 3 to 3,000 ng/mL. Standard curves were prepared using blank plasma matrices and treated in the same manner as the test samples. […] Values were calculated from the data of the peptide plasma concentration versus time curves using a non-compartmental model analysis, as described elsewhere (Groulx, 2006; Landaw and Di Stefano 3rd, 1982). The doses of z-DTP2 and DTP3 predicted to achieve the therapeutic plasma concentration of 1 μM at the steady state were calculated from the measured pharmacokinetic values using the following equation: k0=k1×Vd×Cp (where Vd is expressed in L/kg; Cp is the plasma concentration at the steady state expressed in mg/L; k0 is the zero order input expressed in mg/kg/hr; k1 is the first order elimination constant [0.693/t1/2]).

U266 cells = test: [3H]thymidine incorporation assay, DTP3 and bortezomib as single agents or in combination, U266; details: Homo sapiens, U-266, 48 h, read-out: IC50 value as single agent
Procedure: (§2) Treatments with DTP3 were for 6 days; bortezomib was added to the cell cultures 48 hr prior to the measurement of cell viability. For the combination treatment, DTP3 was used at the concentrations of 3 nM in U266 cells and of 10 nM in KMS-12 cells, whereas bortezomib was used at increasing concentrations, as shown.
Viability data from the experiment shown in FIG. 12 were converted into values representing the fraction of cells affected (FA) equaling 0.5 in the drug-treated cultures compared with untreated cultures, and the interaction of DTP3 with bortezomib was analysed according to the Chou-Talalay method (Chou, 2006). Also shown are the drug concentrations giving the FA value of 0.5 and the description of the CI. […]
(§3) [^3H]Thymidine incorporation assays were performed using standard protocols (Griffiths and Sundaram, 2011). […] At 24, 72 or 144 hr, cells were incubated for an additional 16 hr with 0.037 MBq/well of [^3H]thymidine (Amersham), and then harvested onto glass fibre filter mats using a 96-well plate automated Tomtec cell harvester (Receptor Technologies) and analysed by liquid scintillation spectroscopy with a LKB Wallac Trilux Microbeta 3 b-counter (PerkinElmer). Values were expressed as the percentage of the counts per minute (cpm) measured in the treated cultures relative to the cpm measured in the respective untreated cultures. […]

KMS-12 cells = test: [3H]thymidine incorporation assay, DTP3 and bortezomib as single agents or in combination, KMS-12; details: Homo sapiens, 48 h, read-out: IC50 value as single agent
Procedure: as §2
Viability data from the experiment shown in FIG. 12 were converted into values representing the fraction of cells affected (FA) equaling 0.5 in the drug-treated cultures compared with untreated cultures, and the interaction of DTP3 with bortezomib was analysed according to the Chou-Talalay method (Chou, 2006). Also shown are the drug concentrations giving the FA value of 0.5 and the description of the CI. Based on the Chou-Talalay equation (Chou, 2006), synergy is present when the CI is less than 1.0 (where values between 0.3 and 0.7 denote synergism, and values between 0.1 and 0.3 denote strong synergism); the combination is additive when CI equals 1.0, and antagonistic when it is more than 1.0 (Chou, 2006).
as §3
The activities of DTP3 and bortezomib in the U266 and KMS-12 myeloma cell lines, both as single agents and in combination, were determined using [^3H]thymidine incorporation assays, performed as described above in “Cell Proliferation, Cell Death, and Apoptosis Assays”. The IC50 values of bortezomib as single agent were determined at 48 hr using 9 concentrations of drug, ranging from 0.1 to 1,000 nM.

- IC50 [2]: < 1 nM
Compound: DTP3 (Acetyl-Tyr-Arg-Phe-NH2, all residues in the D configuration) (peptide)

- disruption of the Gadd45β/MKK7 complex (Gadd45β/MKK7 complex): not
Compound: Ac-Arg-Phe-Tyr-NH2 (Ac-[dR]-[dF]-[dY]-NH2) [SCRB, scrambled control D-tripeptide, reference compound]
- percentage of apoptotic cells [5]: no more than 27.2%

- IC50 (U266 cells): 6 nM
- IC50 (KMS-12 cells): 6 nM
Compound: CC(C)C[C@H](NC(=O)[C@H](Cc1ccccc1)NC(=O)c1cnccn1)B(O)O [bortezomib, reference compound]

Further lines, the compound ahead of its results:

Compound: tetrapeptide Tyr-Asp-His-Phe, D-configuration, NH2 group at the C terminal, benzyloxycarbonyl group at the N terminal (Cbz-[dY][dD][dH][dF]-NH2) [z-DTP1]
- cytotoxic activity in multiple myeloma cell lines [1]: potent and dose-dependent toxicity
- IC50 values in the sensitive multiple myeloma cell lines [1]: low nM to low μM

Compound: DTP3 (Acetyl-Tyr-Arg-Phe-NH2, all residues in the D configuration)
- IC50 [3]: 0.16 nM
- IC50 [4]: 0.13 nM

Compound: tetrapeptide Tyr-Glu-Arg-Phe, D configuration, NH2 group at the C terminal, benzyloxycarbonyl group at the N terminal (Cbz-[dY][dE][dR][dF]-NH2) [z-DTP2]
- predicted dose required to achieve the therapeutic plasma concentration of 1 μM at the steady state (k0) [6]: 3.61 mg/kg/h
- cytotoxic activity in multiple myeloma cell lines [1]: potent and dose-dependent toxicity
- IC50 values in the sensitive multiple myeloma cell lines [1]: low nM to low μM

Source: patent US20170240592A1, “GADD45BETA/MKK7 INHIBITOR FOR THE TREATMENT OF A RESISTANT HAEMATOLOGICAL MALIGNANCY” (IMPERIAL INNOVATIONS LIMITED, priority 2014, published 2017)
